The values that follow are results of earlier work, collected in paper PMC8542695.

For series [1], the target named is annexin A2 (ANXA2) (Homo sapiens) (UniProt P07355).
Series [2] deals with p53 (Homo sapiens) (UniProt P04637).
Series [3] addresses non-muscle myosin 2A (NM2A) (Homo sapiens) (UniProt P35579).

Sequence of S100A4 (P26447 2-101): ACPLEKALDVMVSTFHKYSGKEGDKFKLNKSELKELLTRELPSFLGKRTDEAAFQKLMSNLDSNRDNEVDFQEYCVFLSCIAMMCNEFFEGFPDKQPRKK
Sequence of p53 (Homo sapiens) (P04637 whole entry): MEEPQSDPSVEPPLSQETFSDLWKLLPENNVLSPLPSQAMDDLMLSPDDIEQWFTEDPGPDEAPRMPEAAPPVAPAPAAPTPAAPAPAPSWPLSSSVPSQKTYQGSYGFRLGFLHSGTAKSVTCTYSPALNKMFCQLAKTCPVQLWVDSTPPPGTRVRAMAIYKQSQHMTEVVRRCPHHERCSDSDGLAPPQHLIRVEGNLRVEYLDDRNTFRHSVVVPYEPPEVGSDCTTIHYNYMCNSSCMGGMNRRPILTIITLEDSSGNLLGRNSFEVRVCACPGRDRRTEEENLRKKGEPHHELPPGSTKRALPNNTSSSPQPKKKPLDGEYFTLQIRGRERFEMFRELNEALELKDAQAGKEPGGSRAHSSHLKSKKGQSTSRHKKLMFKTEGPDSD
Sequence of non-muscle myosin 2A (NM2A) (Homo sapiens) (P35579 2-1960): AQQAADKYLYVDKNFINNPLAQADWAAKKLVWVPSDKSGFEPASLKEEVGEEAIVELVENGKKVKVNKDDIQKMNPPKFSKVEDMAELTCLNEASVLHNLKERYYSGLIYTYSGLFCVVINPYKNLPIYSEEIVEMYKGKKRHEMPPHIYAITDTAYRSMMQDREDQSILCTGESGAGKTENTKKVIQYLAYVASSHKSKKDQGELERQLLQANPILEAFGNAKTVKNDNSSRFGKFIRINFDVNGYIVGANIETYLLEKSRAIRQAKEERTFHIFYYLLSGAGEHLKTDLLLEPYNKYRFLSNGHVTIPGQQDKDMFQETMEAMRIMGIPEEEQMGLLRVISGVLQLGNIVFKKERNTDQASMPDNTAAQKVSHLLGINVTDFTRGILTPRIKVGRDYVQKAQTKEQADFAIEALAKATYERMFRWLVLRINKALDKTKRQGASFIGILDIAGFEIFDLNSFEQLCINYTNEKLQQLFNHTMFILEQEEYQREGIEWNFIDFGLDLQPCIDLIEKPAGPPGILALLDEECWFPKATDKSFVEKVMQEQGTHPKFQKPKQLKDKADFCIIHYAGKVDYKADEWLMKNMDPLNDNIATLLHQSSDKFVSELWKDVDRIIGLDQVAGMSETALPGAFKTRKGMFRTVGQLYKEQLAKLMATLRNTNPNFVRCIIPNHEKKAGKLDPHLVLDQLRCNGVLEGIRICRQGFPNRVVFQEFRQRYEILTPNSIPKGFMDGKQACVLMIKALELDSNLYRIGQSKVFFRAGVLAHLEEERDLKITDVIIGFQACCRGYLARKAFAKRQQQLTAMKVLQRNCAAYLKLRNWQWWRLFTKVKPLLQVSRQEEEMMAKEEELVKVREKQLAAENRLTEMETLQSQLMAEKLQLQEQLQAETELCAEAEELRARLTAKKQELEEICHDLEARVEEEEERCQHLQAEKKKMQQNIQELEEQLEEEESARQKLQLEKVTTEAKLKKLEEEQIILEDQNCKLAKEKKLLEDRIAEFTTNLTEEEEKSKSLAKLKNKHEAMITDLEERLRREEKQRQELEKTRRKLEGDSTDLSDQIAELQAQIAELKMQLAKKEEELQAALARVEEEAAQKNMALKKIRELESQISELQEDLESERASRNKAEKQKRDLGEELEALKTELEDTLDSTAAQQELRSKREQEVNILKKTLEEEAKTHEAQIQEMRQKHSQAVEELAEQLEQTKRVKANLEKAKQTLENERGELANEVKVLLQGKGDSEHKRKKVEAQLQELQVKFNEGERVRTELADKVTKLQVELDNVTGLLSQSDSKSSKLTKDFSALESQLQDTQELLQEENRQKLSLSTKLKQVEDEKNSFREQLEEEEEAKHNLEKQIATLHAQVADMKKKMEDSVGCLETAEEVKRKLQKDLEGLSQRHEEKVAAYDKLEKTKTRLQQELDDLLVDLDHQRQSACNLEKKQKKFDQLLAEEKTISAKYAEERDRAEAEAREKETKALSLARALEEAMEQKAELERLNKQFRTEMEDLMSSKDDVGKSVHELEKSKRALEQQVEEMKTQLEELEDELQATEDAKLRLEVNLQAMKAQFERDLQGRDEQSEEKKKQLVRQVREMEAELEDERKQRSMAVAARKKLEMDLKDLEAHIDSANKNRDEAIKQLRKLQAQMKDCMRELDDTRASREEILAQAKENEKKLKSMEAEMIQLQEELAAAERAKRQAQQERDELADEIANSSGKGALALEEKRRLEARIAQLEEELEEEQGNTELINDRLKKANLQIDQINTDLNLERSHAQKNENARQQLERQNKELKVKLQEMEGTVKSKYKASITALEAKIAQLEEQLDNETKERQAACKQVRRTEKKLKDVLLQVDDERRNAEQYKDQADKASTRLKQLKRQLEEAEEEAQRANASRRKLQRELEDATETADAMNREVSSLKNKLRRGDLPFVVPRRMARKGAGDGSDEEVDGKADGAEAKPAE
Sequence of annexin A2 (ANXA2) (Homo sapiens) (P07355 2-339): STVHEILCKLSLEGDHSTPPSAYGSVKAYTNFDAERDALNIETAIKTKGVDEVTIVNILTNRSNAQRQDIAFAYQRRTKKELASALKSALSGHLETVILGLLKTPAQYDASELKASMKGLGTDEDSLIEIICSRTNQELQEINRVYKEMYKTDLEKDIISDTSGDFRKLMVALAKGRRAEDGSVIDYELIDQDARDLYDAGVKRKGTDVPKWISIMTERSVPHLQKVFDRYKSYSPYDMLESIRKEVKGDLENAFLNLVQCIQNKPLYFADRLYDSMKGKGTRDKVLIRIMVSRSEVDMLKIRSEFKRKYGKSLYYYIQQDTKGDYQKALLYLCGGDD

For S100A4 (from UniProt P26447), the Kd in series [1] was 2000 nM; in series [2] it was 2000 nM; in series [3], below 1 nM.
